Substitutions are numbered along the chain they refer to.

The chains are these.
B1: 375_D01 (antibody, V domains shown)
VH: EVQLLESGGGLVQPGGSLRLSCAASGFTFSSYSMNWVRQAPGKGLEWVSGINYNGGYTGYADSVKGRFTISRDNSKNTLYLQMNSLRAEDTAVYYCARGANWHDTALDYWGQGTLVTVSS
VL: DIQMTQSPSSLSASVGDRVTITCRASQSILTYLNWYQQKPGKAPKLVIYAATSRASGVPSRFSGSGSGTDFTLTISSLQPEDFATYYCQQSYETPLTFGGGTKVEIK
B2: 376_E02 (antibody, V domains shown)
VH: B1 VH with S49A, T58K
VL: B1 VL with T31S, L33V, A55H, Y92D, E93N
B3: 369_G10 (antibody, V domains shown)
VH: B1 VH with S33G, N35H, S49A, G50S, G59S, G99A
VL: B1 VL with T31S, E93D, T94S
B4: 373_E11 (antibody, V domains shown)
VH: B1 VH with S30D, S33G, N35H, S49A, G50S, G59S, G99A
VL: B1 VL with L30V, T31S, E93D, T94S
B5: 375_G05 (antibody, V domains shown)
VH: B1 VH with S49A, G59S
VL: B1 VL with L30V, T31S, V47L, A51V, E93D, T94S
B6: 375_F12 (antibody, V domains shown)
VH: B1 VH with S30D, S33G, N35H, S49A, G50S, G59S, G99A
VL: B1 VL with Y92D, T94L
B7: 368_D09 (antibody, V domains shown)
VH: B1 VH with S30D, S33G, N35H, S49A, G55S, T58K, G59S, G99A, A106H
VL: B1 VL with L30V, T31S, L33V, V47L, R54L, E93D, T94N
B8: 371_D12 (antibody, V domains shown)
VH: B1 VH with S30D, S33G, T58K, G59S, G99A
VL: B1 VL with T31S, V47L, T94L
B9: 371_D07 (antibody, V domains shown)
VH: B1 VH with S30D, S31D, S33G, S49A, G50N, T58K, G99A, A106H
VL: B1 VL with T94L
B10: 376_B03 (antibody, V domains shown)
VH: B1 VH with S49A, G55S, T58K, G59S
VL: B1 VL with T31S, L33V, A51V, A55H, E93D, T94S
B11: 371_H02 (antibody, V domains shown)
VH: B1 VH with S30D, S31D, T58K, G59S, G99A, A106H
VL: B1 VL with L30I, T31S, R54L, T94N
B12: 375_D10 (antibody, V domains shown)
VH: B1 VH with S49A, G59S
VL: B1 VL with L33V, V47L, Y92D, E93D, T94S
B13: 375_H01 (antibody, V domains shown)
VH: B1 VH with S31D, S49A, G55S, G59S, G99A, A106H
VL: B1 VL with V47L, A55H, E93S, T94N
B14: 370_H08 (antibody, V domains shown)
VH: B1 VH with S33G, N35H, S49A, G50S, G59S, G99A, A106H
VL: B1 VL with T31S, L33V, V47L, A55H, E93S, T94L
B15: 368_F10 (antibody, V domains shown)
VH: B1 VH with S33G, S49A, G55S, G59S, G99A, A106H
VL: B1 VL with L30V, T31S, L33V, V47L, E93D
B16: 368_B10 (antibody, V domains shown)
VH: B1 VH with S30D, S33G, N35H, S49A, G50S, G59S, G99A
VL: B1 VL with Y92D, T94L
B17: 376_E11 (antibody, V domains shown)
VH: B1 VH with G59S
VL: B1 VL with L33V, T94L
B18: 365_C06 (antibody, V domains shown)
VH: B1 VH with S31D, S33G, N35H, G59S, G99A
VL: B1 VL with L30S, L33V, V47L, A51V, R54L, E93D, T94N
B19: 375_G04 (antibody, V domains shown)
VH: B1 VH with S33G, S49A, G50S, G55S, A106H
VL: B1 VL with L30V, T31S, L33V, V47L, R54L, E93D, T94S
B20: 375_E06 (antibody, V domains shown)
VH: B1 VH with T58K, G59S
VL: B1 VL with T31S, E93D, T94S
B21: 369_H03 (antibody, V domains shown)
VH: B1 VH with N35H, S49A, G50S, G55S, T58K, G59S, G99A
VL: B1 VL with L30V, T31S, V47L, A51T, E93D
B22: 368_C09 (antibody, V domains shown)
VH: B1 VH with N35H, G50N, G99A, A106H
VL: B1 VL with L33V, V47L, R54L, E93D, T94L
B23: 375_E03 (antibody, V domains shown)
VH: B1 VH with S31D, S49A, G50N, A106H
VL: B1 VL with R54L, E93D, T94N
B24: 375_F08 (antibody, V domains shown)
VH: B1 VH with S33G, G50S, G55S, T58K, G59S, A106H
VL: B1 VL with T31S, V47L, A55H, E93D, T94N
B25: 375_E10 (antibody, V domains shown)
VH: B1 VH with G59S
VL: B1 VL with T31S, E93D, T94N
B26: 365_B04 (antibody, V domains shown)
VH: B1 VH with S33G, N35H, S49A, G50S, G55S, G59S, G99A
VL: B1 VL with V47L, A55H, Y92D, T94S
B27: 369_B03 (antibody, V domains shown)
VH: B1 VH with S33G, N35H, S49A, G59S, G99A
VL: B1 VL with L33V, R54L, T94L
B28: 370_B01 (antibody, V domains shown)
VH: B1 VH with S30D, S31D, S33G, N35H, T58K, G59S, G99A
VL: B1 VL with T31S, L33V, V47L, A50V, T52S, E93S, T94L
B29: 376_C04 (antibody, V domains shown)
VH: B1 VH with S33G, G50N
VL: B1 VL with T31S, L33V, V47L, A51V, A55H, E93D, T94N
B30: 375_F07 (antibody, V domains shown)
VH: B1 VH with S31D, G50N
VL: B1 VL with T31S, V47L, E93D, T94S
B31: 376_G02 (antibody, V domains shown)
VH: B1 VH with S31D, S33G, G59S, G99A
VL: B1 VL with L30S, T31R, R54L, E93D, T94N
B32: 375_A04 (antibody, V domains shown)
VH: B1 VH with S30D, S33G, S49A, T58K, G59S, G99A
VL: B1 VL with A50Y, A51V, T52N, S53N, R54L, A55P, E93N, T94S
B33: 372_E02 (antibody, V domains shown)
VH: B1 VH with S33G, S49A, G50S, G59S, G99A
VL: B1 VL with L30I, T31S, L33V, E93D, T94L
B34: 372_A09 (antibody, V domains shown)
VH: B1 VH with S30D, S33G, G59S, G99A
VL: B1 VL with T31S, E93N, T94S
B35: 374_F03 (antibody, V domains shown)
VH: B1 VH with S33G, S49A, G50S, G59S, G99A, A106H
VL: B1 VL with L30I, T31S, L33V, E93D
B36: 368_B11 (antibody, V domains shown)
VH: B1 VH with S30D, S33G, N35H, T58K, G59S, G99A, A106H
VL: B1 VL with T31S, V47L, T52S, R54L, A55Q, E93D, T94S
B37: 371_A04 (antibody, V domains shown)
VH: B1 VH with S30D, S33G, G50S, G55S, G99A
VL: B1 VL with V47L, A51V, E93D
B38: 375_H05 (antibody, V domains shown)
VH: B1 VH with G50N
VL: B1 VL with T31S, L33V, V47L, E93D
B39: 372_B11 (antibody, V domains shown)
VH: B1 VH with N35H, S49A, G55S, G59S, G99A, A106H
VL: B1 VL with L33V, R54L, E93D
B40: 365_B10 (antibody, V domains shown)
VH: B1 VH with S30D, S31D, N35H, S49A, G50S, G55S, T58K, G99A
VL: B1 VL with T31R, V47L, Y92D, E93N, T94L
B41: 375_A11 (antibody, V domains shown)
VH: B1 VH with S31D, S33G, N35H, G50S, G55S, T58K, G59S, G99A
VL: B1 VL with L30V, T31S, V47L, A50Y, A51V, S53N, R54L, E93D, T94N
B42: 375_F02 (antibody, V domains shown)
VH: B1 VH with S49A, G50S, G55S, G59S, A106H
VL: B1 VL with T31S, V47L, E93D, T94S
B43: 374_B02 (antibody, V domains shown)
VH: B1 VH with S30D, N35H, S49A, G55S, G59S, G99A, A106H
VL: B1 VL with L30I, T31S, V47L, E93D, T94S
B44: 371_A09 (antibody, V domains shown)
VH: B1 VH with S33G, T58K, G59S, G99A
VL: B1 VL with L30V, L33V, E93D, T94S

The test deals with human Fc (human). Kind of test: ELISA, negative control. In general terms: ELISA stands for enzyme-linked immunosorbent assay.
As to B1, the optical density turned out to be 0.182 OD.

B2: the optical density stood at 0.222 OD.

For B3, the optical density is 0.423 OD.

The molecule B4 registered an optical density of 0.243 OD.

Regarding B5, the optical density stood at 0.21 OD.

Molecule B6 gave an optical density of 0.175 OD.

With B7, the optical density turned out to be 0.212 OD.

In the case of B8, the optical density was found to be 0.337 OD.

B9 gave an optical density of 0.299 OD.

B10: the optical density was 0.253 OD.

The molecule B11 came in with an optical density of 0.388 OD.

In the case of B12, the optical density came out at 0.228 OD.

Molecule B13 had an optical density of 0.216 OD.

With B14, the optical density amounted to 0.538 OD.

On to B15, for which the optical density was 0.328 OD.

For the molecule B16, the optical density was 0.412 OD.

B17 showed an optical density of 0.268 OD.

For B18, the optical density turned out to be 0.318 OD.

On to B19, for which the optical density was determined as 0.161 OD.

The molecule B20 displayed an optical density of 0.188 OD.

The molecule B21 displayed an optical density of 0.498 OD.

In the case of B22, the optical density amounted to 0.341 OD.

As to B23, the optical density was 0.181 OD.

B24 yielded an optical density of 0.201 OD.

B25 yielded an optical density of 0.187 OD.

With B26, the optical density is 0.271 OD.

As for B27, the optical density is 0.62 OD.

Molecule B28 registered an optical density of 0.47 OD.

Molecule B29 had an optical density of 0.219 OD.

As for B30, the optical density was determined as 0.172 OD.

Regarding B31, the optical density was 0.285 OD.

Turning to B32, the optical density came out at 0.177 OD.

B33 had an optical density of 0.431 OD.

B34: the optical density was 0.31 OD.

Consider B35, for which the optical density was determined as 0.185 OD.

B36: the optical density was found to be 0.286 OD.

Turning to B37, the optical density was 0.315 OD.

Consider B38, for which the optical density is 0.167 OD.

Turning to B39, the optical density amounted to 0.438 OD.

B40 showed an optical density of 0.322 OD.

B41 returned an optical density of 0.176 OD.

Molecule B42 gave an optical density of 0.205 OD.

B43 had an optical density of 0.179 OD.

As to B44, the optical density worked out at 0.302 OD.

The values are drawn from patent US20210380703A1.
